# Assay results: FireProtDB
# Where “and” joins values, the source holds several entries; their conditions need not be identical. Equal entries are not always repeated.
# B1: Lysozyme C, milk isozyme wild type, P81708 (protein)
# chain: KIFSKCELARKLKSMGMDGFHGYSLANWVCMAEYESNFNTQAFNGRNSNGSSDYGIFQLNSKWWCKSNSHSSANACNIMCSKFLDDNIDDDIACAKRVVKDPNGMSAWVAWVKHCKGKDLSKYLASCNL
# B2: wild type, Q8VD40 (protein)
# chain: MDGDGDPESVGQPEEVSPEEACAEEACAEGDRPGEEEEEEQEELEEAAYLAELPEALLLRVLAQLPAAELVQACRLVCLRWKELVDGAPLWLLKCQQEGLVPEGCGEEEERDHWQRFYFLSKRRRNLLRNPCGEEDLEGWCDVEHGGDGWRVEEIPGDSGVEFPQDDSVRKYFASSFEWCRKAQVVDLQAEGYWEELLDTTQPAIVAKDWYSGRSDAGCLYELSVKLLSEHEDVLAEFNTGQVPVSPDSEEGGWTEISHTFTDYGPGVRFVRFEHGGQDAVYWKGWFGARVTNSSVWVEP
# B3: Lysozyme C wild type, P00708 (protein)
# chain: KDIPRCELVKILRRHGFEGFVGKTVANWVCLVKHESGYRTTAFNNNGPNSRDYGIFQINSKYWCNDGKTRGSKNACNINCSKLRDDNIADDIQCAKKIAREARGLTPWVAWKKYCQGKDLSSYVRGC
# B4: Nucleoside diphosphate kinase, mitochondrial wild type, P34093 (protein)
# chain: MFSRFARAFPKILASGASQRTFATVQKAFANPTSKKLIVGSSLLIGSAFATTSFVACENKSVPLVGLPGTNQERSFIAIKVSSTQRRLIGEIIARFEKKGFKLVGIKILVPTPEHAAKHYEDLNKKPFFNGLVKFFSSGAVVAMVFEGKDVVRTGRVLIGATDPSQSAPGTIRFDLCIETGRNIIHGSDSNESAAHEIALWFKEDEIANWVSTNPVYEKM
# B5: Growth factor receptor-bound protein 2 wild type, Q08012 (protein)
# chain: MEAIAKHDFSATADDELSFRKTQILKILNMEDDSNWYRAELDGKEGLIPSNYIEMKNHDWYYGRITRADAEKLLSNKHEGAFLIRISESSPGDFSLSVKCPDGVQHFKVLRDAQSKFFLWVVKFNSLNELVEYHRTASVSRSQDVKLRDMIPEEMLVQALYDFVPQESGELDFRRGDVITVTDRSDENWWNGEIGNRKGIFPATYVTPYHS
# B6: General odorant-binding protein lush wild type, O02372 (protein)
# chain: MKHWKRRSSAVFAIVLQVLVLLLPDPAVAMTMEQFLTSLDMIRSGCAPKFKLKTEDLDRLRVGDFNFPPSQDLMCYTKCVSLMAGTVNKKGEFNAPKALAQLPHLVPPEMMEMSRKSVEACRDTHKQFKESCERVYQTAKCFSENADGQFMWP
# B7: Regulatory protein cro wild type, P03036 (protein)
# chain: MQTLSERLKKRRIALKMTQTELATKAGVKQQSIQLIEAGVTKRPRFLFEIAMALNCDPVWLQYGTKRGKAA
# B8: Single-stranded DNA-binding protein wild type, P03695 (protein)
# chain: MFKRKSTAELAAQMAKLNGNKGFSSEDKGEWKLKLDNAGNGQAVIRFLPSKNDEQAPFAILVNHGFKKNGKWYIETCSSTHGDYDSCPVCQYISKNDLYNTDNKEYSLVKRKTSYWANILVVKDPAAPENEGKVFKYRFGKKIWDKINAMIAVDVEMGETPVDVTCPWEGANFVLKVKQVSGFSNYDESKFLNQSAIPNIDDESFQKELFEQMVDLSEMTSKDKFKSFEELNTKFGQVMGTAVMGGAAATAAKKADKVADDLDAFNVDDFNTKTEDDFMSSSSGSSSSADDTDLDDLLNDL
# B9: Lectin wild type, P16404 (protein)
# chain: MATYKLCSVLALSLTLFLLILNKVNSVETISFSFSEFEPGNDNLTLQGAALITQSGVLQLTKINQNGMPAWDSTGRTLYAKPVHIWDMTTGTVASFETRFSFSIEQPYTRPLPADGLVFFMGPTKSKPAQGYGYLGIFNNSKQDNSYQTLGVEFDTFSNPWDPPQVPHIGIDVNSIRSIKTQPFQLDNGQVANVVIKYDASSKILHAVLVYPSSGAIYTIAEIVDVKQVLPEWVDVGLSGATGAQRDAAETHDVYSWSFQASLPETNDAVIPTSNHNTFAI
# Conditions: whole UniProt chain shown; for Tm / unfolding enthalpy (calorimetric) / unfolding enthalpy (van 't Hoff): Thermal
# [1] = Canis lupus familiaris, pH 4.5, 25 °C, GdnHCl, CD, acetate 50 mM, CaCl2 2 mM
# [2] = Canis lupus familiaris, pH 4.5, DSC, Sodium acetate/glycine-HCl 50 mM/50 mM/, transition: 3, reversible: yes
# [3] = Cavia porcellus, pH 7.4, 25 °C, Urea, CD, NaPi 0.01 M, NaCl 0.15 M, reversible: Yes
# [4] = Cavia porcellus, pH 7.4, DSC, NaPi 0.01 M, NaCl 0.15 M, reversible: No
# [5] = Dictyostelium discoideum, pH 7.5, DSC, HEPES-NaOH 50 mM, reversible: no
# [6] = Dictyostelium discoideum, pH 7.5, DSC, HEPES-NaOH 50 mM, transition: 3, reversible: no
# [7] = Dictyostelium discoideum, pH 7.5, DSC, HEPES-NaOH 50 mM, transition: 3, reversible: yes
# [8] = Dictyostelium discoideum, pH 8, 25 °C, Urea, Absorbance, Tris-acetate 83 mM, reversible: yes
# [9] = Drosophila melanogaster, pH 6, 5 °C, GdnHCl, CD, sodium phosphate 50 mM, reversible: yes
# [10] = Drosophila melanogaster, pH 6, 5 °C, GdnHCl, Fluorescence, sodium phosphate 50 mM, Na2SO4 0.4 M, reversible: yes
# [11] = Drosophila melanogaster, pH 6, CD, sodium phosphate 50 mM, Na2SO4 0.4 M, reversible: yes
# [12] = Drosophila melanogaster, pH 6.5, 25 °C, Urea, Fluorescence, sodium phosphate 20 mM
# [13] = Enterobacteria phage 434, pH 6, 20 °C, Urea, Fluorescence, KH2PO4 25 mM, KCl 100 mM, reversible: yes(>95%)
# [14] = Enterobacteria phage 434, pH 6, 20 °C, Urea, far-UV CD, KH2PO4 25 mM, KCl 100 mM, reversible: yes(>95%)
# [15] = Enterobacteria phage 434, pH 7, DSC, K-phosphate 20 mM
# [16] = Enterobacteria phage T4, pH 8, DSC, Tris-HCl 10 mM, NaCl 200 mM, reversible: yes
# [17] = Erythrina corallodendron, pH 7.4, DSC, Sodium phosphate 0.02 M, NaCl 0.15 M, reversible: yes
protein,measurement,setting,value
B1,denaturant m value,[1],2.43 kcal/mol/M and 1 kcal/mol/M
same,unfolding free energy,[1],2.84 kcal/mol and 5.27 kcal/mol
same,denaturant m value,"Canis lupus familiaris, pH 4.5, 25 °C, GdnHCl, CD, acetate 50 mM",2.48 kcal/mol/M and 1 kcal/mol/M
same,Tm,[2],39 °C
same,unfolding enthalpy (calorimetric),[2],44.6 kcal/mol
B2,denaturant m value,[3],0.79 kcal/mol/M
same,unfolding free energy,[3],2.64 kcal/mol
same,Tm,[4],57 °C
same,unfolding enthalpy (calorimetric),[4],141 kcal/mol
B3,Tm,"Columba livia, pH 6, CD, MES 50 mM, potassium chloride 100 mM, transition: 3",70 °C
B4,Tm,[5],61.8 °C
same,unfolding enthalpy (calorimetric),[5],785 kcal/mol
same,Tm,[6],55.7 °C
same,unfolding enthalpy (calorimetric),[6],319 kcal/mol
same,Tm,[7],37.5 °C
same,unfolding enthalpy (calorimetric),[7],97 kcal/mol
same,denaturant m value,[8],1.71 kcal/mol/M
same,unfolding free energy,[8],5.42 kcal/mol
B5,denaturant m value,[9],3.48 kcal/mol/M
same,unfolding free energy,[9],1.47 kcal/mol
same,denaturant m value,[10],1.39 kcal/mol/M
same,unfolding free energy,[10],2.18 kcal/mol
same,Tm,[11],60.1 °C
same,unfolding enthalpy (van 't Hoff),[11],33.1 kcal/mol
B6,denaturant m value,[12],1.24 kcal/mol/M and 1.76 kcal/mol/M and 1.77 kcal/mol/M
same,denaturant midpoint (higher = more stable),[12],2.39 M and 2.98 M and 4.11 M
same,unfolding free energy,[12],3.02 kcal/mol and 5.26 kcal/mol and 7.35 kcal/mol
B7,denaturant m value,[13],1.05 kcal/mol/M
same,denaturant midpoint (higher = more stable),[13],3.35 M
same,unfolding free energy,[13],3.5 kcal/mol
same,denaturant m value,[14],1.02 kcal/mol/M
same,denaturant midpoint (higher = more stable),[14],3.5 M
same,unfolding free energy,[14],3.6 kcal/mol
same,Tm,[15],46.4 °C
same,unfolding enthalpy (calorimetric),[15],53.8 kcal/mol
B8,Tm,[16],49 °C
same,unfolding enthalpy (calorimetric),[16],84 kcal/mol
B9,Tm,[17],61.7 °C
same,unfolding enthalpy (calorimetric),[17],320 kcal/mol
same,unfolding enthalpy (van 't Hoff),[17],151 kcal/mol
